# Reference: the DeepSol protein solubility set
# Test: soluble on expression in E. coli; label from the status in PepcDB or PDB records
row,Sequence,soluble on expression in E. coli
1,MGSDKIHHHHHHMENLIFDIGFHKGEDTLFYLLKGYRVIAVDADPDLINEWQNIFKKYIENGKLLLLNYVISDTNDVDTDFYIGPNTIWSSTKVSISSRMCCKAIKKKIKSKRLDHLFHEYGTPFYCKIDIEGNDIIALQTMEKVSEKPLYISVETECIGEDEDIAGHELDTLNALYQLGYRKFKLVDQRTLTVLDYNCFYKNNSEHNWFEQIETNCKYAEELIVLSDTDQRVKFTDFFPGSSGPFGEELAGKWYDYPQAKEMLKKHREDKMRLNEPAWTFWCDWHATF,not soluble
2,MITSTTTDYKNFFKHSAHPANAEQYFRELLDKRERRYEDLCRNIISDMNQYGLSVVDDFLGMETGLKILNEVRSMYNAGAFQDGQVVTNQTPDAPAVRGDKIRGDKIKWVGGNEPGCSNVWYLTNQIDSVVYRVNTMKDNGILGNYHIRERTRAMVACYPGSGTHYVMHVDNPQKDGRVITAIYYLNINWDARESGGILRIRPTPGTTVADIEPKFDRLIFFWSDIRNPHEVQPAHRTRYAITVWYFDAKEREEALIRAKLENSKTNNLAAQAQAQQAEPDSTTTPPAAPASSASSLPVSMSTGTGALNANVSSNSCATSSEICT,not soluble
3,MEYLDEIKTLGLKPNTITYSMLMLASERKDDFEVSFKLLSQAKGDGVSPNLIMCRCITSLCKRRFEKACAGGEPVVSFKSGRPQIENKWTSMALMVYRETISGGTVPTTEVVSQVLGCLQLPHDAALRDRLISTLGINISSQKQHNIFPLVDGFGEYDPRAFSLLEEATSLGVLPSVSFNKIPLFFDTTELPKNVAEVYLLTIFKGLKHRLAAGAKIPHINLIISIQEKEIRTPEGEKTIDLTGRVGQEIGALLRRGFKIIASTIRKPNQSSATQHSTREPVT,not soluble
4,MERDERPPSGGGGGGGSAGFLEPPAALPPPPRNGFCQDELAELDPGTNGETDSLTLGQGHIPVSVPDDRAEQRTCLICGDRATGLHYGIISCEGCKGFFKRSICNKRVYRCSRDKNCVMSRKQRNRCQYCRLLKCLQMGMNRKAIREDGMPGGRNKSIGPVQISEEEIERIMSGQEFEEEANHWSNHGDSDHSSPGNRASESNQPSPGSTLSSSRSVELNGFMAFRDQYMGMSVPPHYQYIPHLFSYSGHSPLLPPQARSLDPQSYSLIHQLMSAEDLEPLGTPMLIEDGYAVTQAELFALLCRLADELLFRQIAWIKKLPFFCELSIKDYTCLLSSTWQELILLSSLTVYSKQIFGELADVTAKYSPSDEELHRFSDEGMEVIERLIYLYHKFHQLKVSNEEYACMKAINFLNQDIRGLTSASQLEQLNKRYWYICQDFTEYKYTHQPNRFPDLMMCLPEIRYIAGKMVNVPLEQLPLLFKVVLHSCKTSTVKE,not soluble
5,MNIYVLMKRTFDTEEKIVIKNGAIYDGEAEFIINPYDEYAIEEAIQVRDAQGGEVTVVTVGGEDSEKELRTALAMGCDKAVLINIEDDVENGDQFTTAKVLAEYLKDKDADLILGGNVAIDGASGQVGPRVAEALNIPYVTTITKLEIDGTNVKIERDVEGDTEVVETSLPVLVTAQQGLNEPRYPSLPGIMKAKKKPLEELELDDLDLEEDDVEAKTKTIEIYLPPKKDAGKVLQGELQDQVKELVSLLHTEAKVI,not soluble
6,MSLNSVPNDLQTWKRFVKDGVLDEARLRKRIAESWHRCKKAEVNPYLEKGPKVLQQTELDQQSKKHSFFLTTAKPYLEKLLPAIKEMEMMALLIDSDGVVLALDGHPRALYEAKRINFVEGACWTETAVGTNAIGTALHISEPVAIQGSEHYSIASHLWNCSAAPIHHEDGSLAGVIDISCPAAGAHPHMLGIATAIAYAAERELAAKSREKELELISRFGERAASSVPMVLCNTKQHIISASMPIRTSMPDWQGRHLYELKERGYSIENAVTIGDGGTCFYLSEQKKKKAFRFNGVIGQSGRSQAMLMHLERAAATDASVCLSGETGTGKEVAARALHENSERRHGPFVAVNCGAIPSDLIESELFGYAEGAFTGAKRNGYKGAFQKANQGTLFLDEIGEISHSMQVALLRVLQERKITPIGGTKEIPVDIRVIAATHCDLRELAENGKIREDLFYRLHVYPIELPPLRDRTEDIPDLFEYYKQKNHWPGDLPSDFCNVLKQWKWPGNIRELFNVFERLSIRFPDGRLRDESLPALLEAAGLPASSAEKKPAAAGVLTFREQIQKDMMIKALESAKGNVSQAAKISGIPRSTFYKRLKKFNLSAESEGGSHHHHHH,soluble
7,MGHHHHHHSHVAQFPTPFGGSLDTWAITVEERAKHDQQFHSLKPISGFITGDQARNFFFQSGLPQPVLAQIWALADMNNDGRMDQVEFSIAMKLIKLKLQGYQLPSALPPVMKQQPVAISS,soluble
8,MGSDKIHHHHHHMTTLISFLGKGIADKTTGYRTATYRFDDDSKHTTPYFGLALAGYLRPERLILVGTAGSMWDVFFEQQDASDDDVLALIDAVRESRVDADMLSAQEKRLTKRLGLPVICRLIPYARDAAEQTEVLLTLAKLVHRSEEVFLDVTHGFRHLPMLALVAARYLAHVKDVKVRGLYYGALEMTSTNGETPVLQLDGMLQMLDWVESLATYNKDGDYGVFASLLQQDGLPEGKAKQLTRAAYFERSSNPVKARETLGSVFSAIKTHNGPMGVLFRDALTERINWFKEPDRAAWELALADAYLERRDYVRAVIYLYESFVTRAVLEHKLNPNDFSERDEAWKDARQDNKQVRKLEYLRNALAHGIKSDDKEIIRMVNDENCLDDQLKKFRRSLFN,not soluble
9,MGSDKIHHHHHHMAVINPFVVGGYVSPRYFCDRVAETENLIRNLINGRNVALVSTRRMGKTGLIRHCFYQPLIKEGYYTFFIDIYATSSLKEFVFALGKGIFEKLKPQGNKFIDRFFSIITSLRIGFKLDSITGEPILELGLGDIHAPETTLEEIFIYLEQADKPCIVAIDEFQQISSYPEKNLEAILRTKVQHCSNSNFVFAGSQRHIMMNIFNSPSRPFYQSVSMMHLGAIPLEVYKPFVKGLFEENGKKVTDQLVENVYTLFDGHTWYVQLILNELFILTDKKGICDVPMINLALNNIIATQDFTFQEIFSRLPEKQKEIMIAIAKEQKAKGVTSAAFIKKYRLTSASSVQSGLKGLLEKDMLTQESGGYQVYDRLFNIWLRRNY,not soluble
10,MGSDKIHHHHHHMTNGVLWRSSLLSDYWFSHLPAALQDSVLHAARQVRKTPGKMLFEKGAAPCGLYALLEGDVRIGGAHFQRLGPRLEPIRRPYWFGEVSLFDEMPRRFDVCSLEQTIFLQVPHSFLVSLLDRHPEYWRHFAALLSQKLGLPLQNPEKLQLLPPRSRVASRLLLLSEGYGPLSHARRLITLDEVTSLQDLSHSALLEVLEDLHERKVVRLGIGQLEVFDVDKLRKIANFSRARAVC,not soluble
11,MGSDKIHHHHHHMRAIAIVLARSSSKRIKNKNIIDFFNKPMLAYPIEVALNSKLFEKVFISSDSMEYVNLAKNYGASFLNLRPKILADDRATTLEVMAYHMEELELKDEDIACCLYGASALLQEKHLKNAFETLNKNQNTDYVFTCSPFSASPYRSFSLENGVQMAFKEHSNTRTQDLKTLYHDAGLLYMGKAQAFKEMRPIFSQNSIALELSPLEVQDIAHFRRFRISQAQIQPFEKRMPVKILCDCFLTSGLGHVRRCEKILSFIEKLGVEASLYLHKQNNISAFLEGVGGNDFLITDSYCLNSKDFYLLKEKAKSLMVIEDTEHAKGFYPKNTKILNFTLNALKHYHHLSKDYQYYLGVGFYPVDARFIYDRPINTENKEVLITLGGSEQKTLKEIVKILENKNVNLHIISPYTPKNPPKNTHYYSPLNPLEFSSLMKSCACAISAAGQTLYELALSQTPSLILPIASNQIIQSKEFESLGIFKQTSLKTLAKDFENLQIQKNQAWAKNLVFGDKLEGALREFLEI,not soluble
12,MAHHHHHHMEFNRSQAAGNGKYVELFAQSYSGPVPKPLPPCTEPTPDEQYRQLMEEKKNEIGEREQRHAENTAGASGSNVDSSNVVGLFSNAATKLRNVAQQVTLKIERASTEVSSATGAAVRQVERQLNVDRFLSNFPELGAMGEILLADYACTAINGGQRVSGHMHITKNYLCFSAPGSSVINQLATAVLKESGVGSDNNPVLGIRQIIPLTEIACILLSVALETVDHRPPFFLPLPASYVRPTGLQIYTTKQQLFQFLAFESIAAKAGSVFTDAVKGLPIQRAYNYLDHAWRASTSVPLPGVNYAS,not soluble
13,GPGSMSARPSVSVYSASSDSVVGTCPLPAVFTAPIRSDIVKFVHTNMAKNSRQAYAVNRLSGMNHSAHSWGTGRAVARIPRISGGGTSTSGAGAFGNMCRGGRMFAPTKIFRRWHRKINLHQKRFAVVSALAASSVPSLVMSRGHQIGNVPEVPLVVEDSIQGYEKTKEAMAFLKAIAAIDDVNRVNDSREIRAGRGKMRNRRYVARRGPMLVMPNNKGTRAFRNIFGLDLANVSALNLLHLAPGGHVGRFVIWTQSAFEQLDKIFGTFTEASAVKKGFTLPAPMLTNTDVTRIMQSEEVRRVLKPKKLQAKKASRFQTPTNGMKNRRLRLRLNPYVKRETAAAKGMRNVANRDARRKAKLARVTKAKKAATKSAKQ,not soluble
14,MIVSFKCVHTRYLFLQGKTRLWPSIKSVAERKLAMLDAATSILDLRSPPGNRLEALDGSRSGQYSVRINAPFRICFVWSINGPEDVEIVDYH,not soluble
15,MIVGEDQLWGRRALEFVDSVERLEAPALISRFESLIASCGFTAYIMAGLPSRNAGLPELTLANGWPRDWFDLYVSENFSAVDPVPRHGATTVHPFVWSDAPYDRDRDPAAHRVMTRAAEFGLVEGYCIPLHYDDGSAAISMAGKDPDLSPAARGAMQLVSIYAHSRLRALSRPKPIRRNRLTPRECEILQWAAQGKTAWEISVILCITERTVKFHLIEAARKLDAANRTAAVAKALTLGLIRL,not soluble
16,MGSDKIHHHHHHMTVDPSHTIPVSVTGAFCSLNCPHCGAHYLRHMISVDEIPALVKKGYRSFLISGGMLPDGSIPFEKYYEHLKELKESHGLLYNFHVGFQKSKVAKELADVVSMDFFGDETVLKSIYGLALTPQEILDIAHFYENVVFHITVGITGGKITHEEKALEILSQETDTVVLNVFIPTPGTKFGKSFPPDLQEVVKLFEKARKLFKRVILGCMQPRGEYRKKLQSELKDLVDVITKPVGGTGEFKGCCAFIGRG,not soluble
17,MNANCSSTAAVICEKKLHRPYSKHCPKHWVYNKETQACYRTISKTNMTILEADNKCFDYGFEHRQDAMLTSIESESENQFVMNLAKEKDANFEFIYLGGYGRSRNGNKWHWMDGSEFNYMNWDRGMPFGRRALAVLVMNKRGKWINHYADKILSQYNAVAVCKFKS,not soluble
18,MHKVLVPFDGSEHAMRALGYVIELSGDLNKPLEVHVLNVQASPIDYSLYLAPDMIDGVKAGLKNEGKRVLDDAIALLAAAGVPFQAHVDLGNVAEQVEAEVQRLGCDAVVMGTRGLGNFGGLLLGSVATRVIHEVSVPVTLIK,not soluble
19,MVLAVKVQIKEGEKVRRKLIELGALNREYKIKREEGFLLIPVKFPVEGFEVVEVELERVETRPNSYKDVVNIPRELRKFLPSSFDIIGNIAIIEIPSELQNYSNEIGGAIIRVHKSVKAVYMKGGSVEGEYRVRNLIHIAGEKITETIHRENGVRLKLDITKVYFSPRLATERMRVFKMAREGEIVFDMFAGVGPFSILLAKKARMVFACDINPWAIKYLEENIKLNKVKNIIPILSDVTKVCVKADRIIMNLPKYASRFLEHAMRCVNNGGIIHYYGFGPEKDPYGWHVKRINEVAGRLGVKVEILGKRIIRNYAPRQYNIAIDFRVSF,soluble
